The target of this assay is PEX5, P50542-3.

For “Serine-protein kinase ATM (Homo sapiens), Q13315 R3047Q”, the “effect of a mutation on the interaction” value is listed as “decreasing interaction strength”.

Source of the values: IntAct's records for PubMed 26344566.
